Test results as given in patent US20260167699A1 (Chugai, published 2026).
Numbering of substitutions follows the chain as printed. Each block holds one binder with its values, some of them ahead of it.

How the values were obtained:
Test in all cases: SPR, vs GpH7-A5/GpH7-B3/GpL16-k0 =100
[1] = target: T1, FcγRIIIa extracellular domain, His-tagged (human, UniProt P08637 17-208)
T1 construct: extracellular domain; also called 3a

[2] = target: T2, FcγRIIa(H) extracellular domain, His-tagged (human, UniProt P12318 34-217)
T2 construct: extracellular domain; also called 2aH
T2 sequence: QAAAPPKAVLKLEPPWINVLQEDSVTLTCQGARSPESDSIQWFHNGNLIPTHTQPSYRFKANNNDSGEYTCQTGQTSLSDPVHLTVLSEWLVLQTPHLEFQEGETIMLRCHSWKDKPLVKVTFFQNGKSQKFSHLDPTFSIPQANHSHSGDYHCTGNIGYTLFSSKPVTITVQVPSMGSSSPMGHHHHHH

[3] = target: T3, FcγRIIb extracellular domain, His-tagged (human, UniProt P31994 43-217)
T3 construct: extracellular domain; also called 2b
T3 sequence: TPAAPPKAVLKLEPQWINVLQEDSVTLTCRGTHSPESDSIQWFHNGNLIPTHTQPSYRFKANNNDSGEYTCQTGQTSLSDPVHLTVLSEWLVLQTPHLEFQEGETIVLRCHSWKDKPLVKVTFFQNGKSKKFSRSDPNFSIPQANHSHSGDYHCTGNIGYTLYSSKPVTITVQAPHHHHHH

[4] = target: T4, FcγRIa extracellular domain, His-tagged (human, UniProt P12314 16-292)
T4 construct: extracellular domain; also called 1a

[5] = target: T5, FcγRIIa(R) extracellular domain, His-tagged (human, UniProt P12318 34-217)
T5 construct: extracellular domain; also called 2aR
T5 sequence: T2 sequence with H134R

T1 sequence (P08637 other isoform, or with tags, fused parts or gaps): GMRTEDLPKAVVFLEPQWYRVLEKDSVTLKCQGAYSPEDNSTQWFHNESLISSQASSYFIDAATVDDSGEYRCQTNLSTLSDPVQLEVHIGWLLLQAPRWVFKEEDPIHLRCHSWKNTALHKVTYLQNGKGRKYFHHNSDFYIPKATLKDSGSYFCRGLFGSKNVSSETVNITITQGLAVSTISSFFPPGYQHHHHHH
T4 sequence (P12314 other isoform, or with tags, fused parts or gaps): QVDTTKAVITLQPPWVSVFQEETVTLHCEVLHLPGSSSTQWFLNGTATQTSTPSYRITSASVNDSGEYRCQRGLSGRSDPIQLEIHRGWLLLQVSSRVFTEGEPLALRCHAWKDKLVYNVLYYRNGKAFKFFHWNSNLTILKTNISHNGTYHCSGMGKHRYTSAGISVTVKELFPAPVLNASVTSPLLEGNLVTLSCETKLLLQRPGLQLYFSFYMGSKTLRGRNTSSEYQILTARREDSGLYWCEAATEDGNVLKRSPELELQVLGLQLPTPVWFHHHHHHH

- He/Con 3a [1]: 88.3 % of control
- He/Con 2aH [2]: 94.4 % of control
- He/Con 2b [3]: 83.4 % of control
- He/Con 1a [4]: 108 % of control
- He/Con 2aR [5]: 99 % of control
B1: GpH7-A5/GpH7-B3 variant L234_03V/GpL16-k0 (antibody, human IgG1, kappa)
heavy 1: not shown
heavy 2: not shown
light: DIVMTQSPLSLPVTPGEPASISCQASESLVHSNRNTYLHWYLQKPGQSPQLLIYKVSNRFSGVPDRFSGSGSGTDFTLKISRVEAEDVGVYYCSQNTHVPPTFGQGTKVEIERTVAAPSVFIFPPSDEQLKSGTASVVCLLNNFYPREAKVQWKVDNALQSGNSQESVTEQDSKDSTYSLSSTLTLSKADYEKHKVYACEVTHQGLSSPVTKSFNRGEC

- He/Con 3a [1]: 76.4 % of control
- He/Con 2aH [2]: 123 % of control
- He/Con 2b [3]: 135 % of control
- He/Con 1a [4]: 100 % of control
- He/Con 2aR [5]: 132 % of control
B2: GpH7-A5/GpH7-B3 variant L235_04F/GpL16-k0 (antibody, human IgG1, kappa)
heavy 1: not shown
heavy 2: not shown
light: B1 light

- He/Con 3a [1]: 113 % of control
- He/Con 2aH [2]: 100 % of control
- He/Con 2b [3]: 172 % of control
- He/Con 1a [4]: 101 % of control
- He/Con 2aR [5]: 142 % of control
B3: GpH7-A5/GpH7-B3 variant L234_09D/GpL16-k0 (antibody, human IgG1, kappa)
heavy 1: not shown
heavy 2: not shown
light: B1 light

- He/Con 3a [1]: 73.8 % of control
- He/Con 2aH [2]: 131 % of control
- He/Con 2b [3]: 168 % of control
- He/Con 1a [4]: 95.9 % of control
- He/Con 2aR [5]: 152 % of control
B4: GpH7-A5/GpH7-B3 variant L235_20W/GpL16-k0 (antibody, human IgG1, kappa)
heavy 1: not shown
heavy 2: not shown
light: B1 light

- He/Con 3a [1]: 68.1 % of control
- He/Con 2aH [2]: 89.4 % of control
- He/Con 2b [3]: 67.7 % of control
- He/Con 1a [4]: 100 % of control
- He/Con 2aR [5]: 82.6 % of control
B5: GpH7-A5/GpH7-B3 variant L234_13S/GpL16-k0 (antibody, human IgG1, kappa)
heavy 1: not shown
heavy 2: not shown
light: B1 light

- He/Con 3a [1]: 88.5 % of control
- He/Con 2aH [2]: 84.3 % of control
- He/Con 2b [3]: 121 % of control
- He/Con 1a [4]: 87.6 % of control
- He/Con 2aR [5]: 117 % of control
B6: GpH7-A5/GpH7-B3 variant L235_09D/GpL16-k0 (antibody, human IgG1, kappa)
heavy 1: not shown
heavy 2: not shown
light: B1 light

- He/Con 3a [1]: 65 % of control
- He/Con 2aH [2]: 73.5 % of control
- He/Con 2b [3]: 62.7 % of control
- He/Con 1a [4]: 95.2 % of control
- He/Con 2aR [5]: 77.3 % of control
B7: GpH7-A5/GpH7-B3 variant L235_18N/GpL16-k0 (antibody, human IgG1, kappa)
heavy 1: not shown
heavy 2: not shown
light: B1 light

- He/Con 3a [1]: 71.3 % of control
- He/Con 2aH [2]: 81.8 % of control
- He/Con 2b [3]: 207 % of control
- He/Con 1a [4]: 104 % of control
- He/Con 2aR [5]: 132 % of control
B8: GpH7-A5/GpH7-B3 variant P238_08L/GpL16-k0 (antibody, human IgG1, kappa)
heavy 1: not shown
heavy 2: not shown
light: B1 light

- He/Con 3a [1]: 73.2 % of control
- He/Con 2aH [2]: 79.5 % of control
- He/Con 2b [3]: 53.4 % of control
- He/Con 1a [4]: 91.6 % of control
- He/Con 2aR [5]: 70.6 % of control
B9: GpH7-A5/GpH7-B3 variant L235_14T/GpL16-k0 (antibody, human IgG1, kappa)
heavy 1: not shown
heavy 2: not shown
light: B1 light

- He/Con 3a [1]: 57.1 % of control
- He/Con 2aH [2]: 99.8 % of control
- He/Con 2b [3]: 87.8 % of control
- He/Con 1a [4]: 92.7 % of control
- He/Con 2aR [5]: 110 % of control
B10: GpH7-A5/GpH7-B3 variant L235_16H/GpL16-k0 (antibody, human IgG1, kappa)
heavy 1: not shown
heavy 2: not shown
light: B1 light

- He/Con 3a [1]: 76.8 % of control
- He/Con 2aH [2]: 97.1 % of control
- He/Con 2b [3]: 67.8 % of control
- He/Con 1a [4]: 97 % of control
- He/Con 2aR [5]: 83.5 % of control
B11: GpH7-A5/GpH7-B3 variant L234_16H/GpL16-k0 (antibody, human IgG1, kappa)
heavy 1: not shown
heavy 2: not shown
light: B1 light

- He/Con 3a [1]: 75.6 % of control
- He/Con 2aH [2]: 96.3 % of control
- He/Con 2b [3]: 92.4 % of control
- He/Con 1a [4]: 101 % of control
- He/Con 2aR [5]: 106 % of control
B12: GpH7-A5/GpH7-B3 variant L235_06M/GpL16-k0 (antibody, human IgG1, kappa)
heavy 1: not shown
heavy 2: not shown
light: B1 light

- He/Con 3a [1]: 98.9 % of control
- He/Con 2aH [2]: 74.6 % of control
- He/Con 2b [3]: 235 % of control
- He/Con 1a [4]: 105 % of control
- He/Con 2aR [5]: 142 % of control
B13: GpH7-A5/GpH7-B3 variant P238_10E/GpL16-k0 (antibody, human IgG1, kappa)
heavy 1: not shown
heavy 2: not shown
light: B1 light

- He/Con 3a [1]: 68.6 % of control
- He/Con 2aH [2]: 64.2 % of control
- He/Con 2b [3]: 62.4 % of control
- He/Con 1a [4]: 97.8 % of control
- He/Con 2aR [5]: 74.6 % of control
B14: GpH7-A5/GpH7-B3 variant L235_05P/GpL16-k0 (antibody, human IgG1, kappa)
heavy 1: not shown
heavy 2: not shown
light: B1 light

- He/Con 3a [1]: 103 % of control
- He/Con 2aH [2]: 126 % of control
- He/Con 2b [3]: 131 % of control
- He/Con 1a [4]: 102 % of control
- He/Con 2aR [5]: 125 % of control
B15: GpH7-A5/GpH7-B3 variant L234_20W/GpL16-k0 (antibody, human IgG1, kappa)
heavy 1: not shown
heavy 2: not shown
light: B1 light
